Biological target: Drosophila Nfs1^Δ1–53/Isd11/IscU complex (Drosophila melanogaster, UniProt Q9VKD3 54-462; O46098 1-92; Q9VHK6 1-154)
Test: cell-based or functional assay

Sequence of Drosophila Nfs1^Δ1–53/Isd11/IscU complex (Q9VKD3 54-462, stated change not applied, chain 1 of 3): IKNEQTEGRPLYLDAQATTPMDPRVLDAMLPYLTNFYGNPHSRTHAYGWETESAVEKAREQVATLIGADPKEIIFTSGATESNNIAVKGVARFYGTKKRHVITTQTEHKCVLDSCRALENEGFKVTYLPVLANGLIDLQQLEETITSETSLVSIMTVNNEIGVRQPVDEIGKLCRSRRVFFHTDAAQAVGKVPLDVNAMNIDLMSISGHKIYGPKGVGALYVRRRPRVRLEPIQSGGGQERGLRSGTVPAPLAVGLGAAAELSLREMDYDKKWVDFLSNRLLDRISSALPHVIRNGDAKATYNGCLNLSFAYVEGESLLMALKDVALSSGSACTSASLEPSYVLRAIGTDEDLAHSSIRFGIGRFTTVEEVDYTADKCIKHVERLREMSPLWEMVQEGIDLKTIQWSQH
Sequence of Drosophila Nfs1^Δ1–53/Isd11/IscU complex (O46098 whole entry, stated change not applied, chain 2 of 3): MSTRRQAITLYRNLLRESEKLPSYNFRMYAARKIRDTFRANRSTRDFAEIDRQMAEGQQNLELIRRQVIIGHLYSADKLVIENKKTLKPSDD
Sequence of Drosophila Nfs1^Δ1–53/Isd11/IscU complex (Q9VHK6 whole entry, stated change not applied, chain 3 of 3): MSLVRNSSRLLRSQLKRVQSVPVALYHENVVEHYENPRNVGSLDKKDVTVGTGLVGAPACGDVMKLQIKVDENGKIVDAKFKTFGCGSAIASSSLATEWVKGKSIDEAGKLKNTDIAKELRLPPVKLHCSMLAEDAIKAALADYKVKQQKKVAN

B1: human frataxin (FXN) (natural protein, UniProt Q16595 42-210, looked up)
chain: LRTDIDATCTPRRASSNQRGLNQIWNVKKQSVYLMNLRKSGTLGHPGSLDETTYERLAEETLDSLAEFFEDLADKPYTFEDYDVSFGSGVLTVKLGGDLGTYVINKQTPNKQIWLSSPSSGPKRYDWTGKNWVYSHDGVSLHELLAAELTKALKTKLDLSSLAYSGKDA
L-cysteine desulfurase activity (total sulfide produced, methylene blue) of the IscU/Nfs1^Δ1–53/Isd11 complex on addition of human frataxin, 1:3 [Nfs1]:[FXN], anaerobic, 10 min at 23°C: 6 fold

Source: article PMC5817353, “Iron Sulfur and Molybdenum Cofactor Enzymes Regulate the Drosophila Life Cycle by Controlling Cell Metabolism” (Frontiers in Physiology, 2018)
